# Results as given in US20190284293A1, “COMBINATION THERAPY WITH ANTI-CD73 ANTIBODIES” (BRISTOL-MYERS SQUIBB COMPANY, priority 2016, published 2019).
# Residue numbers refer to the chain shown, from its start.
# T1: CD32a-R131 (FcgRIIa-R131) (Homo sapiens, UniProt P12318, H167R)
# T1 sequence (P12318 34-217 H167R limits assumed): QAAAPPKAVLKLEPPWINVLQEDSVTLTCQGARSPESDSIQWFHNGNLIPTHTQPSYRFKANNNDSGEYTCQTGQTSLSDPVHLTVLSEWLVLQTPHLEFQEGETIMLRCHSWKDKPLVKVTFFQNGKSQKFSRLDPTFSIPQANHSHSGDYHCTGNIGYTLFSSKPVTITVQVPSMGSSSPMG
# T2: CD32b (FcgRIIb) (Homo sapiens, UniProt P31994)
# T2 sequence (P31994 43-310): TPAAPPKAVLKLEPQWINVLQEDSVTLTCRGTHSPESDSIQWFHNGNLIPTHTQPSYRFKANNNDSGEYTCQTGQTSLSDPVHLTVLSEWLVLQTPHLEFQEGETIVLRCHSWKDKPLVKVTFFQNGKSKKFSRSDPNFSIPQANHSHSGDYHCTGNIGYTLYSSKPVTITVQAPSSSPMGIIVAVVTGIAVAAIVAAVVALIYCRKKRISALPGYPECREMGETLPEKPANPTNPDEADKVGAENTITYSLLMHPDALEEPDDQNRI
# T3: CD32a-H131 (FcgRIIa-H131) (Homo sapiens, UniProt P12318)
# T3 sequence (P12318 34-217 limits assumed): T1 sequence (P12318 34-217 H167R limits assumed) with R134H
# B1: mAb7-IgG2.3G1-AY-V27 (protein)
# constant: ASTKGPSVFPLAPCSRSTSESTAALGCLVKDYFPEPVTVSWNSGALTSGVHTFPAVLQSSGLYSLSSVVTVPSSNFGTQTYTCNVDHKPSNTKVDKTVERKSCVECPPCPAPELLGGPSVFLFPPKPKDTLMISRTPEVTCVVVDVEHEDPEVKFNWYVDGVEVHNAKTKPREEQYNSTYRVVSVLTVLHQDWLNGKEYKCKVSNKALPAPIEKTISKAKGQPREPQVYTLPPSREEMTKNQVSLTCLVKGFYPSDIAVEWESNGQPENNYKTTPPVLDSDGSFFLYSKLTVDKSRWQQGNVFSCSVMHEALHNHYTQKSLSLSPGK
# modifications: left off: another chain or arm of the molecule
# B2: mAb7-IgG2.5G1-AY-V27 (protein)
# constant: B1 constant with C14S, S102C
# modifications: left off: another chain or arm of the molecule
# B3: mAb8-IgG2.5G1-AY-V27 (protein)
# constant: B1 constant with C14S, S102C
# modifications: left off: another chain or arm of the molecule
# B4: mAb7-IgG2.5 (protein)
# constant: ASTKGPSVFPLAPSSRSTSESTAALGCLVKDYFPEPVTVSWNSGALTSGVHTFPAVLQSSGLYSLSSVVTVPSSNFGTQTYTCNVDHKPSNTKVDKTVERKCCVECPPCPAPPVAGPSVFLFPPKPKDTLMISRTPEVTCVVVDVSHEDPEVQFNWYVDGVEVHNAKTKPREEQFNSTFRVVSVLTVVHQDWLNGKEYKCKVSNKGLPAPIEKTISKTKGQPREPQVYTLPPSREEMTKNQVSLTCLVKGFYPSDIAVEWESNGQPENNYKTTPPMLDSDGSFFLYSKLTVDKSRWQQGNVFSCSVMHEALHNHYTQKSLSLSPGK
# modifications: left off: another chain or arm of the molecule
# B5: mAb6-IgG2.5 (protein)
# constant: B4 constant
# modifications: left off: another chain or arm of the molecule
# B6: mAb8-IgG2.5 (protein)
# constant: B4 constant
# modifications: left off: another chain or arm of the molecule
# B7: mAb4-IgG2.5 (protein)
# constant: B4 constant
# modifications: left off: another chain or arm of the molecule
# B8: mAb5-IgG2.5 (protein)
# constant: B4 constant
# modifications: left off: another chain or arm of the molecule
# B9: mAb13-IgG2.5 (protein)
# constant: B4 constant
# modifications: left off: another chain or arm of the molecule
# Biological target: T1, CD32a-R131 (FcgRIIa-R131)
# Assay: SPR, antibody binding to anti-his Fab captured FcgR-his (% Rmax)
# Details: 1 μM antibody
# Experimental: (§1) The binding of antibodies to Fc gamma receptors (FcγRs or FcgRs) was studied using biosensor technologies including Biacore surface plasmon resonance (SPR) and Fortebio Biolayer Interferometry (BLI). SPR studies were performed on a Biacore T100 instrument (GE Healthcare) at 25° C. The Fab fragment from a murine anti-6×His antibody was immobilized on a CM5 sensor chip using EDC/NHS to a density of −3000 RU. Various his-tagged FcgRs (7 ug/ml) were captured via the C-terminal his-tag using a contact time of 30 s at 10 ul/min, and the binding of 1.0 μM antibody was evaluated in a running buffer of 10 mM NaPO4, 130 mM NaCl, 0.05% p20 (PBS-T) pH 7.1. FcgRs used for these experiments included CD64 (FcgRI), CD32a-H131 (FcgRIIa-H131), CD32a-R131 (FcgRIIa-R131), CD32b (FcgRIIb), CD16a-V158 (FcgRIIIa-V158), CD16b-NA1 (FcgRIIIb-NA1), and CD16B-NA2 (FcgRIIIb-NA2). BLI experiments were performed on a Fortebio Octet RED instrument (Pall, Fortebio) at 25° C. in 10 mM NaPO4, 130 mM NaCl, 0.05% p20 (PBS-T) pH 7.1. Antibodies were captured out of undiluted expression supernatants on protein A coated sensors, followed by the binding of 1 μM hCD32a-H131, hCD32a-R131, hCD32b, hCD16a-V158, or 0.1 μM hCD64 analytes.
row,% Rmax hCD32a-R131 [%],Molecule
1,92,B1
2,89,B2
3,79,B3
4,19,B4
5,17,B5
6,14,B6
7,8,B7
8,26,B8
9,4,B9

# Biological target: CD64 (FcgRI) (Homo sapiens, UniProt P12314)
# Assay: as above
# Details: 1 μM antibody
# Experimental: as §1
# CD64 (FcgRI), sequence (P12314 16-374): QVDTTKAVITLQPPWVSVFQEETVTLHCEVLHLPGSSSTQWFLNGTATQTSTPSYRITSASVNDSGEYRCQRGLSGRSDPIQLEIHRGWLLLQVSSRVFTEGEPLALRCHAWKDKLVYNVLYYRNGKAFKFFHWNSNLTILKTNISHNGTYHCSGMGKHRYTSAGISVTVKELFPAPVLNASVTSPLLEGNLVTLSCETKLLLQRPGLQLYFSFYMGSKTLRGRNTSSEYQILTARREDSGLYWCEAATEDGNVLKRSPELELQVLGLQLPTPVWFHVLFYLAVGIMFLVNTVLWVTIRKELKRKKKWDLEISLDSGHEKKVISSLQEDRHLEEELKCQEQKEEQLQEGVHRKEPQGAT
row,% Rmax hCD64 [%],Molecule
1,84,B1
2,81,B2
3,77,B3
4,4,B4
5,3,B5
6,3,B6
7,2,B7
8,6,B8
9,−2,B9

# Biological target: T2, CD32b (FcgRIIb)
# Assay: as above
# Details: 1 μM antibody
# Experimental: as §1
row,% Rmax hCD32b [%],Molecule
1,76,B1
2,84,B2
3,77,B3
4,2,B4
5,4,B5
6,3,B6
7,1,B7
8,5,B8
9,−2,B9

# Biological target: CD16B-NA2 (FcgRIIIb-NA2) (Homo sapiens, UniProt O75015)
# Assay: as above
# Details: 1 μM antibody
# Experimental: as §1
# CD16B-NA2 (FcgRIIIb-NA2), sequence (O75015 17-200 limits assumed): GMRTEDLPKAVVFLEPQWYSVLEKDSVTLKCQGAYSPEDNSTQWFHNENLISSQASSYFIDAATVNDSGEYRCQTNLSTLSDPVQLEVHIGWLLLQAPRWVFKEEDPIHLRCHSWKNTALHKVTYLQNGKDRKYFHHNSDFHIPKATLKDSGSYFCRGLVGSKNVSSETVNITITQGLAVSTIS
row,% Rmax hCD16B-NA2 [%],Molecule
1,7,B1
2,9,B2
3,10,B3
4,0,B4
5,0,B5
6,0,B6
7,0,B7
8,1,B8
9,−2,B9

# Biological target: T3, CD32a-H131 (FcgRIIa-H131)
# Assay: as above
# Details: 1 μM antibody
# Experimental: as §1
row,% Rmax hCD32a-H131 [%],Molecule
1,68,B1
2,74,B2
3,76,B3
4,72,B4
5,75,B5
6,59,B6
7,46,B7
8,89,B8
9,39,B9

# Biological target: CD16a-V158 (FcgRIIIa-V158) (Homo sapiens, UniProt P08637, F176V)
# Assay: as above
# Details: 1 μM antibody
# Experimental: as §1
# CD16a-V158 (FcgRIIIa-V158), sequence (P08637 17-208 F176V limits assumed): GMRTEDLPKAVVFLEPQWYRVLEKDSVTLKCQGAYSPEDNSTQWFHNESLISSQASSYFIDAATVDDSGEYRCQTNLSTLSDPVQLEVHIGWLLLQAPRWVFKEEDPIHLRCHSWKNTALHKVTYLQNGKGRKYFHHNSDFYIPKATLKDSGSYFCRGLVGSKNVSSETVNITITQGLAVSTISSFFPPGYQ
row,% Rmax hCD16a-V158 [%],Molecule
1,26,B1
2,32,B2
3,33,B3
4,2,B4
5,2,B5
6,2,B6
7,1,B7
8,4,B8
9,0,B9
